B1: H2-Kb / Ed21 (parent complex)
chain 1: AQSVTQPDARVTVSEGASLQLRCKYSYFGTPYLFWYVQYPRQGLQLLLKYYPGDPVVQGVNGFEAEFSKSNSSFHLRKASVHWSDWAVYFCAVSMSGGYKVVFGSGTRLLVSP
chain 2: DSGVVQSPRHIIKEKGGRSVLTCIPISGHSNVVWYQQTLGKELKFLIQHYEKVERDKGFLPSRFSVQQFDDYHSEMNMSALELEDSAMYFCASSPRQTDYTFGSGTRLLVI
chain 3: not shown
chain 4: IQKTPQIQVYSRHPPENGKPNILNCYVTQFHPPHIEIQMLKNGKKIPKVEMSDMSFSKDWSFYILAHTEFTPTETDTYACRVKHDSMAEPKTVYWDRDM
chain 5: SIINFEKL
B2: H2-Kb / Ed5 (parent complex)
chain 1: GDSVTQTEGPVTVSESESLIINCTYSATSIAYPNLFWYVRYPGEGLQLLLKVITAGQKGSSRGFEATYNKETTSFHLQKASVQESDSAVYYCALGSYNQGKLIFGQGTKLSIKP
chain 2: DTTVKQNPRYKLARVGKPVNLICSQTMNHDTMYWYQKKPNQAPKLLLFYYDKILNREADTFEKFQSSRPNNSFCSLYIGSAGLEYSAMYLCASSRRLGASQNTLYFGAGTRLSVL
chain 3: not shown
chain 4: B1 chain 4
chain 5: SIINFEKL

Variants of: B1
Assay: % of reporter cells activated (NFAT-GFP), raw
Note: test concentration or dose not given here.

Variant | ratio to parent
chain 5 I3C | 0.989
chain 5 I3E | 0.924
chain 5 I3P | 0.927
chain 5 N4P | 0.0248
chain 5 N4V | 0.0259
chain 5 F5D | 0.905
chain 5 F5Y | 1.05
chain 5 F5L | 1.05
chain 5 F5V | 0.909
chain 5 F5P | 1.03
chain 5 L8A | 0.819
chain 5 L8P | 0.996
chain 5 L8Q | 0.894
chain 5 L8R | 0.997
chain 5 L8S | 0.78
chain 5 E6R | 0.936
chain 5 E6C | 0.0832
chain 5 K7S | 0.785
chain 5 K7P | 0.667
chain 5 K7C | 0.374
chain 5 K7F | 0.261
chain 5 S1W | 0.616
chain 5 S1R | 0.785
chain 5 S1C | 0.604
chain 5 S1D | 0.911
chain 5 S1L | 0.793
chain 5 S1V | 0.9
chain 5 S1I | 0.745
chain 5 I2S | 1.01
chain 5 I2D | 0.924

Now from value to variant:

ratio to parent | Variant
1 | chain 5 I3H
0.872 | chain 5 I3V
0.869 | chain 5 I3W
0.966 | chain 5 I3Y
0.952 | chain 5 I3T
0.851 | chain 5 I3K
1.03 | chain 5 I3L
0.00791 | chain 5 N4M
0.015 | chain 5 N4Q
0.182 | chain 5 N4G
0.981 | chain 5 F5M
0.856 | chain 5 F5E
0.785 | chain 5 L8D
0.734 | chain 5 L8W
0.949 | chain 5 E6K
0.554 | chain 5 E6P
0.226 | chain 5 E6F
0.46 | chain 5 E6T
0.0493 | chain 5 E6I

ratio to parent | Variant
0.0831 | chain 5 E6W
0.717 | chain 5 K7W
1.02 | chain 5 K7R
0.141 | chain 5 K7D
0.745 | chain 5 K7Y
0.983 | chain 5 S1Q
0.93 | chain 5 S1E
0.933 | chain 5 S1G
0.97 | chain 5 S1Y
0.808 | chain 5 S1P
0.979 | chain 5 S1H
0.814 | chain 5 I2Y
0.926 | chain 5 I2H
1.01 | chain 5 I2T
0.995 | chain 5 I2C
0.861 | chain 5 I2W
1.04 | chain 5 I2A
0.976 | chain 5 I2M

Variants of: B2
Assay: % of reporter cells activated (NFAT-GFP), raw

Variant | ratio to parent
chain 5 I3Q | 0.162
chain 5 F5D | 0.92
chain 5 K7W | 0.543
chain 5 N4V | 0.0109

Other lines, results leading:

ratio to parent | Variant
0.648 | chain 5 K7Q
0.694 | chain 5 L8F
0.917 | chain 5 I2M
0.322 | chain 5 S1A

Source: publication PMC11480844 (2024)
